From IntAct's records for PubMed 25531777

B1: Rho-related GTP-binding protein Rho6 (Homo sapiens), Q92730 (parent)
chain: MKERRAPQPVVARCKLVLVGDVQCGKTAMLQVLAKDCYPETYVPTVFENYTACLETEEQRVELSLWDTSGSPYYDNVRPLCYSDSDAVLLCFDISRPETVDSALKKWRTEILDYCPSTRVLLIGCKTDLRTDLSTLMELSHQKQAPISYEQGCAIAKQLGAEIYLEGSAFTSEKSIHSIFRTASMLCLNKPSPLPQKSPVRSLSKRLLHLPSRSELISSTFKKEKAKSCSIM

Variants of: B1
Conditions: with PLXNB1, O43157-1
Chain of PLXNB1, O43157-1 (O43157 whole entry): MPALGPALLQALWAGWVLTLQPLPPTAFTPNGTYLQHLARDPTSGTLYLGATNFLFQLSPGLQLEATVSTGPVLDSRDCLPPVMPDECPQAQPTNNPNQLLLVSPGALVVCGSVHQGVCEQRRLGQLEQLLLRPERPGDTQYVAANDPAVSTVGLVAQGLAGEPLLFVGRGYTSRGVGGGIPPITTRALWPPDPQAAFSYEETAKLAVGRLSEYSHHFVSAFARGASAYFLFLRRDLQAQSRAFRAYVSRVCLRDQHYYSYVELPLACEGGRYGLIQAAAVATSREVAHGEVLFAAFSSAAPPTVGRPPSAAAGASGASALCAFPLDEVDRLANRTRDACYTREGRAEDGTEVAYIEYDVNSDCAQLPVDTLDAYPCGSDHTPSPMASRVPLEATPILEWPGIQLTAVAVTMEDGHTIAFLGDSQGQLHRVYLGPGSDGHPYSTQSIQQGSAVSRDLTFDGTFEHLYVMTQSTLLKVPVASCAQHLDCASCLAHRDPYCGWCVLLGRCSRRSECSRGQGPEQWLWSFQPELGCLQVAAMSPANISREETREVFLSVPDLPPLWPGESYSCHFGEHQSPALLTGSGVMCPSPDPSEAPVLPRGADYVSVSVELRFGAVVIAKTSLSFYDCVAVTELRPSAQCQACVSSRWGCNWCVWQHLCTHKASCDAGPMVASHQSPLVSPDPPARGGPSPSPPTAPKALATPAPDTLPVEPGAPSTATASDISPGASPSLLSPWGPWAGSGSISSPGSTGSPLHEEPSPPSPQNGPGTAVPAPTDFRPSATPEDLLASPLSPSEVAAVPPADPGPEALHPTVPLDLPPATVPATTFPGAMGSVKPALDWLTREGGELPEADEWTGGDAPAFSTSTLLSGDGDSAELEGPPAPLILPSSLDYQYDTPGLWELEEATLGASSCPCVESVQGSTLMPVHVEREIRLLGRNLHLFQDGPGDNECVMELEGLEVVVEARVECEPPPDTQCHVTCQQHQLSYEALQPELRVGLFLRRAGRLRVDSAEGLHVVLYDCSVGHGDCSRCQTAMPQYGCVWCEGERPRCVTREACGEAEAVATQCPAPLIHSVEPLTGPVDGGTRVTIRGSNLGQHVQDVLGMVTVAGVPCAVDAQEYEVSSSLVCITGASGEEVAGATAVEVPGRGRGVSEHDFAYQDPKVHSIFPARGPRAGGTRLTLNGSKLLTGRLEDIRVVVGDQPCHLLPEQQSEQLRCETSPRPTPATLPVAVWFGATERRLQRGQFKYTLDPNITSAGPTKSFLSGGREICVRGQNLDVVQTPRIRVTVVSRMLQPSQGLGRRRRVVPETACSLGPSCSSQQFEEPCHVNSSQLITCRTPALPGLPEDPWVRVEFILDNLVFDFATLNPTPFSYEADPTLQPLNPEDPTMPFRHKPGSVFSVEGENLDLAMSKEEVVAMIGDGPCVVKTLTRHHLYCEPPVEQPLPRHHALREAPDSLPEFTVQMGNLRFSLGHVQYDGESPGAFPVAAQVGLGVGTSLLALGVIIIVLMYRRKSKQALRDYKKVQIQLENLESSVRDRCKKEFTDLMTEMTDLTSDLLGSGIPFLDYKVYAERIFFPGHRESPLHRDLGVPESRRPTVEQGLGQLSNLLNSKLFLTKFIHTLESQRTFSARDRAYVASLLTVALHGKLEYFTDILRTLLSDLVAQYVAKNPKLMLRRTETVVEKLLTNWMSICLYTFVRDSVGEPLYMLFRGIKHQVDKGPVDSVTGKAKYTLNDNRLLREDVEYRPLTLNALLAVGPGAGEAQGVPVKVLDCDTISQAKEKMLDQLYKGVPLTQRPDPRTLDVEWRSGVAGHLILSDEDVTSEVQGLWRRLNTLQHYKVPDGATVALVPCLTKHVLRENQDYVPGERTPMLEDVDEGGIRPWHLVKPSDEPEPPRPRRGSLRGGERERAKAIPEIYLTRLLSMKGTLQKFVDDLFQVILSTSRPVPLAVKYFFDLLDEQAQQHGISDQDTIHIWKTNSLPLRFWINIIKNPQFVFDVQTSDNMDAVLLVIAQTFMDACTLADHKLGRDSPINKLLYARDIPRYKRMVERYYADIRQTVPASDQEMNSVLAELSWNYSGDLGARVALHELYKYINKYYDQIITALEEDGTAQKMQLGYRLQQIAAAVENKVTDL
In the case of F180C, the “effect of a mutation on the interaction” value is reported as “disrupting interaction strength”.
G70R was tested, and the “effect of a mutation on the interaction” value was “disrupting interaction strength”.
E98D was tested, and the “effect of a mutation on the interaction” value was “disrupting interaction strength”.

Variants of: B1
Conditions: with PLXNB1, O43157-1
Remark: another data set of the same source
T45A was tested, and the “effect of a mutation on the interaction” value was “disrupting interaction strength”.
E48A was tested, and the “effect of a mutation on the interaction” value was “disrupting interaction strength”.
